The term Kd denotes the equilibrium constant for the complex coming apart.

“And” between values parts separate entries of the source, which are not always exact repeats. Identical values can stand only once.

Data set [1] in a line: Total turnovers and regio-/stereoselectivity of P450 variants in artemisinin hydroxylation (analytical scale). Type of data set: biochemical. Conditions: for TTN: total turnovers on artemisinin, NADPH cofactor regeneration system, analytical scale. As for the experimental part:
Determination of Total Turnovers and Regio- and Stereoselectivity of the P450 Variants.
After 12 hours, 9-fluorenone was added to the mixtures as internal standard. The hydroxylation products were functionalized with benzoyl chloride followed by HPLC analysis. TTN values were calculated based on the total amount of hydroxylated products in the reactions as quantified based on the calibration curves generated using purified 2-4. The enzyme regio- and stereoselectivity was determined based on the area under the curve of the chromatographic peaks corresponding to the hydroxylation products 2, 3, and 4. Mean and standard deviation values reported for P450 variants in Table 1 were calculated from experiments performed at least in triplicate.

The format of data set [2] is biochemical. Conditions: 250 μM artemisinin, rates measured over initial 30 seconds. As for the experimental part: Measurement of Product Formation Rates and Coupling Efficiency.
Initial product formation rates were measured from 1 mL-scale reactions containing 250 μM artemisinin, 0.1-0.5 μM purified P450, and 200 μM NADPH in potassium phosphate buffer (50 mM, pH 8.0) at room temperature. After 30 seconds, the samples were extracted with dichloromethane and subjected to benzoyl chloride derivatization followed by HPLC analysis as described above. Cofactor oxidation rate in the presence of artemisinin was measured by monitoring NADPH depletion at 340 nm (ε=6.22 mM^−1 cm^−1) using 0.1 μM purified P450, 250 μM artemisinin, and 200 μM NADPH. Coupling efficiency was calculated from the ratio between the initial product formation rate and the initial NADPH oxidation rate. Reported mean and standard deviation values were calculated from experiments performed at least in triplicate.

A short description of data set [3]: KD for artemisinin binding to P450 variants (heme spin-shift titration). Particulars: binding of artemisinin to 3 μM purified P450, pH 8.0. As for the experimental part:
Determination of KD Values for Artemisinin Binding.
Binding experiments were performed using 3 μM purified P450 in potassium phosphate buffer (50 mM, pH 8.0) by titrating increasing amounts of artemisinin (5 μM to 1 mM) from an ethanol stock solution (50 mM). At each concentration, a difference spectrum from 350 to 500 nm was recorded and binding curves were generated by plotting the change in absorbance at 390 nm and 420 nm corresponding to the high-spin and low-spin state of the enzyme, respectively, against the artemisinin concentration. KD values were calculated using Sigma Plot via non-linear fitting of the experimental binding curves to an equation describing a standard 1:1 binding interaction. Reported mean and standard deviation values were calculated from experiments performed at least in triplicate.

B1: CYP102A1: naturally occurring wild-type cytochrome P450 CYP102A1 from Bacillus megaterium (SEQ ID NO.: 1) (protein, listed as Bacillus megaterium)
chain: MTIKEMPQPKTFGELKNLPLLNTDKPVQALMKIADELGEIFKFEAPGRVTRYLSSQRLIKEACDESRFDKNLSQALKFVRDFAGDGLFTSWTHEKNWKKAHNILLPSFSQQAMKGYHAMMVDIAVQLVQKWERLNADEHIEVPEDMTRLTLDTIGLCGFNYRFNSFYRDQPHPFITSMVRALDEAMNKLQRANPDDPAYDENKRQFQEDIKVMNDLVDKIIADRKASGEQSDDLLTHMLNGKDPETGEPLDDENIRYQIITFLIAGHETTSGLLSFALYFLVKNPHVLQKAAEEAARVLVDPVPSYKQVKQLKYVGMVLNEALRLWPTAPAFSLYAKEDTVLGGEYPLEKGDELMVLIPQLHRDKTIWGDDVEEFRPERFENPSAIPQHAFKPFGNGQRACIGQQFALHEATLVLGMMLKHFDFEDHTNYELDIKETLTLKPEGFVVKAKSKKIPLGGIPSPSTEQSAKKVRKKAENAHNTPLLVLYGSNMGTAEGTARDLADIAMSKGFAPQVATLDSHAGNLPREGAVLIVTASYNGHPPDNAKQFVDWLDQASADEVKGVRYSVFGCGDKNWATTYQKVPAFIDETLAAKGAENIADRGEADASDDFEGTYEEWREHMWSDVAAYFNLDIENSEDNKSTLSLQFVDSAADMPLAKMHGAFSTNVVASKELQQPGSARSTRHLEIELPKEASYQEGDHLGVIPRNYEGIVNRVTARFGLDASQQIRLEAEEEKLAHLPLAKTVSVEELLQYVELQDPVTRTQLRAMAAKTVCPPHKVELEALLEKQAYKEQVLAKRLTMLELLEKYPACEMKFSEFIALLPSIRPRYYSISSSPRVDEKQASITVSVVSGEAWSGYGEYKGIASNYLAELQEGDTITCFISTPQSEFTLPKDPETPLIMVGPGTGVAPFRGFVQARKQLKEQGQSLGEAHLYFGCRSPHEDYLYQEELENAQSEGIITLHTAFSRMPNQPKTYVQHVMEQDGKKLIELLDQGAHFYICGDGSQMAPAVEATLMKSYADVHQVSEADARLWLQQLEEKGRYAKDVWAG
Regarding B1, the TTN in data set [1] is < 1.

B2: FL#41: CYP102A1-derived engineered P450 variant (SEQ ID NO. 4) (protein)
chain: MTIKEMPQPKTFGELKNLPLLNTDKPVQALMKIADELGEIFKFEAPGRVTRYLSSQRLIKEACDESRFDKNLSQALKFVRDFAGDGLATSWTHEKNWKKAHNILLPSFSQQAMKGYHAMMVDIAVQLVQKWERLNADEHIEVPEDMTRLTLDTIGLCGFNYRFNSFYRDQPHPFITSMVRALDEAMNKLQRANPDDPAYDENKRQFQEDIKVMNDLVDKIIADRKASGEQSDDLLTHMLNGKDPETGEPLDDENIRYQIITFLIAGHETTSGLLSFALYFLVKNPHVLQKAAEEAARVLVDPVPSYKQVKQLKYVGMVLNEALRLWPTAPAFSLYAKEDTVLGGEYPLEKGDELMVLIPQLHRDKTIWGDDVEEFRPERFENPSAIPQHAFKPFGNGQRACIGQQFALHEATLVLGMMLKHFDFEDHTNYELDIKETLTLKPEGFVVKAKSKKIPLGGIPSPSTEQSAKKVRKKAENAHNTPLLVLYGSNMGTAEGTARDLADIAMSKGFAPQVATLDSHAGNLPREGAVLIVTASYNGHPPDNAKQFVDWLDQASADEVKGVRYSVFGCGDKNWATTYQKVPAFIDETLAAKGAENIADRGEADASDDFEGTYEEWREHMWSDVAAYFNLDIENSEDNKSTLSLQFVDSAADMPLAKMHGAFSTNVVASKELQQPGSARSTRHLEIELPKEASYQEGDHLGVIPRNYEGIVNRVTARFGLDASQQIRLEAEEEKLAHLPLAKTVSVEELLQYVELQDPVTRTQLRAMAAKTVCPPHKVELEALLEKQAYKEQVLAKRLTMLELLEKYPACEMKFSEFIALLPSIRPRYYSISSSPRVDEKQASITVSVVSGEAWSGYGEYKGIASNYLAELQEGDTITCFISTPQSEFTLPKDPETPLIMVGPGTGVAPFRGFVQARKQLKEQGQSLGEAHLYFGCRSPHEDYLYQEELENAQSEGIITLHTAFSRMPNQPKTYVQHVMEQDGKKLIELLDQGAHFYICGDGSQMAPAVEATLMKSYADVHQVSEADARLWLQQLEEKGRYAKDVWAG
Take B2: the TTN entry in data set [1] is recorded as “about 50”.

B3: IV-H4: FL#62-derived P450 variant (SEQ ID NO. 9), 7(S)-hydroxylating (protein)
chain: MTIKEMPQPKTFGELKNLPLLNTDKPVQALMKIADELGEIFKFEAPGRVTRYLSSQRLIKEACDESRFDKNLSQALKFSRDVAGDGLATSWTHEKNWKKAHNILLPSFSQQAMKGYHAMMVDIAVQLVQKWERLNADEHIEVSEDMTRLTLDTIGLCGFNYRFNSFYRDQPHPFIISMVRTLDEVMNKLQRANPDDPVYDENKRQCQEDIKVMNDLVDKIIADRKARGEQSDDLLTQMLNGKDPETGEPLDDGNISYQIITFLIAGHETTSGLLSFALYFLVKNPHVLQKVAEEAARVLVDPVPSYKQVKQLKYVGMVLNEALRLWPTAPAFSLYAKEDTVLGGEYPLEKGDEVMVLIPQLHRDKTIWGDDVEEFRPERFENPSAIPQHAFKPFGNGQRACIGQQFALHEATLVLGMMLKHFDFEDHTNYELDIKETLTLKPEGFVVKAKSKKIPLGGIPSPSTEQSAKKVRKKAENAHNTPLLVLYGSNMGTAEGTARDLADIAMSKGFAPQVATLDSHAGNLPREGAVLIVTASYNGHPPDNAKQFVDWLDQASADEVKGVRYSVFGCGDKNWATTYQKVPAFIDETLAAKGAENIADRGEADASDDFEGTYEEWREHMWSDVAAYFNLDIENSEDNKSTLSLQFVDSAADMPLAKMHGAFSTNVVASKELQQPGSARSTRHLEIELPKEASYQEGDHLGVIPRNYEGIVNRVTARFGLDASQQIRLEAEEEKLAHLPLAKTVSVEELLQYVELQDPVTRTQLRAMAAKTVCPPHKVELEALLEKQAYKEQVLAKRLTMLELLEKYPACEMKFSEFIALLPSIRPRYYSISSSPRVDEKQASITVSVVSGEAWSGYGEYKGIASNYLAELQEGDTITCFISTPQSEFTLPKDPETPLIMVGPGTGVAPFRGFVQARKQLKEQGQSLGEAHLYFGCRSPHEDYLYQEELENAQSEGIITLHTAFSRMPNQPKTYVQHVMEQDGKKLIELLDQGAHFYICGDGSQMAPAVEATLMKSYADVHQVSEADARLWLQQLEEKGRYAKDVWAG
Turning to B3, in data set [1] (artemisinin as substrate), the “(S)-stereoselectivity for C7 hydroxylation” value was > 99.9% and the “regioselectivity for C7 hydroxylation” value was > 99.9%. Also, the “Product distribution (%) 4” value in data set [1] (share of 6a-hydroxy-ART (4), 0.5 mM artemisinin, 0.5-1 μM P450, 12 hours) came out at 0%. For the same molecule, in data set [1] (share of 7(R)-hydroxy-ART (3), 0.5 mM artemisinin, 0.5-1 μM P450, 12 hours), the “Product distribution (%) 3” value is 0%. In data set [1] (share of 7(S)-hydroxy-ART (2), 0.5 mM artemisinin, 0.5-1 μM P450, 12 hours), the “Product distribution (%) 2” value came out at 100%. The TTN in data set [1] is 362 and 362 ± 15. In addition, in data set [2], the Product formation rate is 100 ± 4 Mole product per mole P450 per minute. Also, the Kd in data set [3] amounted to 53 ± 11 µM.
